Reference: patent publication US20170037103A1 (University of California, published 2017)
Bridges are numbered along the chain shown (N, C = ends). Where no end group is shown, it is not given here. [ ]: non-standard residue; d: D form. The star is where a group is joined. PalS‑X = 3,5-bis(methyl-S-cysteinyl)-1-(methyl-S-palmityl)-benzene joining the two Cys; Ida^NHPal = iminodiacetic acid mono-N-palmityl amide, CCCCCCCCCCCCCCCCNC(=O)CNCC(=O)*; dPEG12 = 40-amino-4,7,10,13,16,19,22,25,28,31,34,37-dodecaoxotetradecanoic acid; Oic = O=C(O)[C@@H]1C[C@@H]2CCCC[C@@H]2N1; Palmitoyl = CCCCCCCCCCCCCCCC(=O)*; Tic = O=C(O)[C@@H]1Cc2ccccc2CN1; Aib = CC(C)(N)C(=O)O; Ahx = NCCCCCC(=O)O

T1: human neuromedin U receptor NMUR1 (human, UniProt Q9HB89 1-426)
T1 sequence (looked up): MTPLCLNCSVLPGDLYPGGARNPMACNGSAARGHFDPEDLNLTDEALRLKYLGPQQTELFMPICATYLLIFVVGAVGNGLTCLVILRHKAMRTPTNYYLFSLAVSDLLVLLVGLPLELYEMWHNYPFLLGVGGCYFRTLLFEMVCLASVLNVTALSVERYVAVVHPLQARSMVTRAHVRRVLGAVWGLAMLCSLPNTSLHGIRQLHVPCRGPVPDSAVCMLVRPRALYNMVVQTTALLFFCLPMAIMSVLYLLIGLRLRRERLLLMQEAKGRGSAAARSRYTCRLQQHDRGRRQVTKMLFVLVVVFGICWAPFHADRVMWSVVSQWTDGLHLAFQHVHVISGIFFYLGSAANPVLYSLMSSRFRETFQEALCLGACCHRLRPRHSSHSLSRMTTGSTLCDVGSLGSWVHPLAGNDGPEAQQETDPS


Each binder was assayed against T1, human neuromedin U receptor NMUR1 (assay: cell-based or functional assay).

Binder | NMUR1 EC50 [nM], calcium mobilization assay
C[Ahx]FLFR[Tic]RN[Ahx]C-NH2 (linker 1-11 via PalS‑X) [NM16] | 3980 nM
FRVDEEFQSPFASQSRGYFLFRPRN-NH2 [human neuromedin U] | 1.12 nM
Palmitoyl-[dPEG12][Aib]FLFRPRN-NH2 [NM4] | 1.51 nM
C[Ahx]FLFR[Tic]RN[Ahx]C-NH2 (cysteine pairing not given here) [NM10] | 3980 nM
{Palmitoyl-dPEG12}-[Aib]FLFRPRN[Aib]-NH2 [NM7] | 170 nM
Ac-FLFRPRN-NH2 [NM1] | 0.58 nM
C[Ahx]FLFR[Oic]RN[Ahx]C-NH2 (cysteine pairing not given here) [NM9] | 1410 nM
[Aib]FLFRPRN-NH2 (N-terminus assumed; SMILES CC(C)C[C@H](NC(=O)[C@H](Cc1ccccc1)NC(=O)C(C)(C)N)C(=O)N[C@@H](Cc1ccccc1)C(=O)N[C@@H](CCCNC(=N)N)C(=O)N1CCC[C@H]1C(=O)N[C@@H](CCCNC(=N)N)C(=O)N[C@@H](CC(N)=O)C(N)=O) [NM2] | 0.63 nM
[Aib]FLFRPRN[Aib]-NH2 (N-terminus assumed; SMILES CC(C)C[C@H](NC(=O)[C@H](Cc1ccccc1)NC(=O)C(C)(C)N)C(=O)N[C@@H](Cc1ccccc1)C(=O)N[C@@H](CCCNC(=N)N)C(=O)N1CCC[C@H]1C(=O)N[C@@H](CCCNC(=N)N)C(=O)N[C@@H](CC(N)=O)C(=O)NC(C)(C)C(N)=O) [NM5] | 58.9 nM
{Nic-Ida^NHPal}-[Aib]FLFRPRN-NH2 [NM4A-Nic] | 43.6 nM
{Ida^NHPal}-[Aib]FLFRPRN-NH2 [NM4A] | 7.41 nM
C[Ahx]FLFRPRN[Ahx]C-NH2 (cysteine pairing not given here) [NM8] | 186 nM
Palmitoyl-[Aib]FLFRPRN-NH2 (SMILES CCCCCCCCCCCCCCCC(=O)NC(C)(C)C(=O)N[C@@H](Cc1ccccc1)C(=O)N[C@@H](CC(C)C)C(=O)N[C@@H](Cc1ccccc1)C(=O)N[C@@H](CCCNC(=N)N)C(=O)N1CCC[C@H]1C(=O)N[C@@H](CCCNC(=N)N)C(=O)N[C@@H](CC(N)=O)C(N)=O) [NM3] | 331 nM

The binders below were run against T2, human neuromedin U receptor NMUR2 (human, UniProt Q9GZQ4 1-415) (assay: told from the calcium mobilization assay on HEK293 cells expressing the receptor; no direct binding assay).
T2 construct: whole, on cells; also called neuromedin U 2 receptor; HEK-NMU2
Method: To test whether neuromedin U can be modified/derivatized to yield truncated bioactive compound(s) that may be useful as therapeutics, we synthesized a small library (25 peptides) of hNMU analogs utilizing various stabilization protocols, including: cyclization, lipidation, introduction of α,α-disubstituted and N-methylated amino acids, retro-inverso-approach, and combination of such (see Table 1). Subsequently all analogues were tested against human neuromedin U receptors (NMUR1 and NMUR2) in calcium mobilization assay (collaboration with Dr Gary Willars, University of Leicester, UK).
HEK293 cells expressing either the neuromedin U 1 receptor or neuromedin U 2 receptor (HEK-NMU1 and HEK-NMU2 respectively) were grown to approximately 90% confluence in ELISA strip plates (96-well format) pre-coated with poly-D-lysine (0.1% w/v) and loaded for 45 min at 37° C. with 2 iM fluo-4-AM in Krebs'-HEPES buffer with bovine serum albumin (KHB-BSA; composition: 10 mM HEPES; 4.2 mM NaHCO₃; 11.7 mM D-glucose; 1.18 mM MgSO₄.7H₂O; 1.18 mM KH₂PO₄; 4.69 mM KCl; 118 mM NaCl; 1.3 mM CaCl₂.2H₂O; 0.1% (w/v) BSA; pH 7.4). Monolayers were then washed and equilibrated for 5 min at 37° C. in 100 il KHB-BSA for subsequent recording of fluorescence as an index of intracellular [Ca²⁺] ([Ca²⁺]ᵢ) using a microplate reader (NOVOstar; BMG LABTECH, Aylesbury, U.K.). […]

T2 sequence (Q9GZQ4 whole entry): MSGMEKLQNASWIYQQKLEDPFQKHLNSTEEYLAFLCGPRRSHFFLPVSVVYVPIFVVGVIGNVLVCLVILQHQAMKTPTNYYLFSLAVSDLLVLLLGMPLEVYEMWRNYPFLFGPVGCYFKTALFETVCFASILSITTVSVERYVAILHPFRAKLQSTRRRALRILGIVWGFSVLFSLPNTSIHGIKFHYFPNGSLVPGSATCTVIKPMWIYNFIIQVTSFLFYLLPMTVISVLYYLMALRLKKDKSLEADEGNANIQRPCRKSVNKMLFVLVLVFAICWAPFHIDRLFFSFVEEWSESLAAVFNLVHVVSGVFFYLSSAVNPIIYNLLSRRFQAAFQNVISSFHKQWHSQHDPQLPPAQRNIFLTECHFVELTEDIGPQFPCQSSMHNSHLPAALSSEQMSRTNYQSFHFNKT

Binder | binding result
Palmitoyl-[dPEG12][Aib]FLFRPRN-NH2 [NM4] | binds
